Laboratory results: the domain aggregation screens of Martell et al. (2025)

Experiment: soluble fraction after stress (log2 fold change); higher = more stays soluble; pooled small domains, quantitative proteomics
Conditions: stress: 75 degC
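Also: 20 min heating vs room temperature control held 20 min.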

Sequence | soluble fraction (log2)
HMNLSDIETWLRELSLEKYALAFSEAEIDFETLPELTEDDLKEVGLPVGPRRKVWGAIQLLRTTD | -1.48
HMNLSNVVIRKVQEMILSGELQEGDKLPPEREMTQRLGIGRPALREGLKSLEMLGLVERRHGLGNFIINKV | -1.05
HMNLSPADFSSVRNALGLSLSTVAKESGINRNYLSNFEKKKHFLEETAKVKLRDYYMSIDPDAFAAAL | -0.408
HMNLVGGKINSLMTTKNVTIQDLSERSGLTVSQIELLLSGDKVPSLAVLIKIARGLGVRVGTFL | -1.12
HMNLVRQHTDYAFRLLVALSQAPGKPISTRTLASAADVPYQFASKIMQKLHEEGLVESVMGPFGGFRLVQ | -3.15
HMNLWIDNTQVINDWTEGASERSGSIYLTAGVKPIKMQYFDSVLNAKAILRWQGPGINKSVVPSSALTPG | -1.14
HMNMEDIADKIGRLYDNLPDDLKLMIKYRDIDDMTYDEIARKANLPIGTVRSRLHRARDILLREI | -1.07
HMNMFGIQRRNHLLSLLQEKKSITVQEAAVIFEVAEETIRRDFRTMEGQGLIVRTHGGALLADD | -4.21
HMNMMIIHVNGEKYSFQEPITISELILKLELDSRKIAIEYNLEILPRSLFEITSIKNGDKIEIVHFI | -3.43
HMNMPYGTVKWFNDAKGFGFIAPEDGSADVFVHFSAINSKGFRSLQEGQRVSYEVTTGPKGAQAAGVTPVT | -0.234
HMNMYTVTGRLVDQDGVPQANALVTIDSSSQQTRTSPQGFYLIKVFGTEPSTIKFLVDGYDPQIVNFTP | -0.466
HMNNDIDRVFAELTVLSQKKGYLVFDDIEKGTEDLSVNEVDWLTNRLLTSGVEIFDDVPDTIK | 0.347
HMNNDSQYLATLQRYYAEHRVLPSYARMLPLLGFASKAAVKKVLERLEVVGMLERTEDGDWAPSERFFER | -2.24
HMNNGYSINEIAKLMKMTLKVVRRYVASGELKTTKTNNTYSISEEAFNEFKKYIEEGGDAKHAQEVADTFK | -1.09
HMNNIGENIKKYRTKQGLSQEDFAKKSGVKYTTLTKIESGVIKKPSVLVMAKIAKALGVNIEELI | -1.64
HMNNIINEAQIKQWVEEFYLSVSPRPTRATMIALVHKKIKEETKDGEEGQTVSETLINNFYTALEKEHKRK | 0.216
HMNNIPFIITDERLNVIQSHLVPREVLDHPDRLRRQIDRFTEENQPKTVNYWWGPEHRHIIFYGKSK | 0.377
HMNNIYFSPVVEENNKGLRLDKFLAASFPEFSRSQLQRLILEGNVSNDDVVIADNSQKVRVGDSFQVIVPE | -0.018
HMNNKSDLLFNHLRQRIATMENGTIFPSVRQLMTEYNVSQSTVSTAIRSLKELGLLEALSRQGMVVRKE | -1.15
HMNNLGSKIKELRIAENLTQEKLAEELNVSFQSISRWENGISTPDISLIPAIARFFGVSTDYLFGLQD | -1.82
HMNNLPDFIKQLRKENNLTQEYVASEIGVSRPTYEQIEKGKRELTISEAEKLAKIFNIPLENFLQGKKGV | 0.122
HMNNPLPDLLKYFRKKKHLTQEQVAKQLSVSRASYASYETGRIIPGMQHIMELSRILEHDFLFAYTLAVQ | -2.41
HMNNPNFAIQKYVTGSDIKRVRKTLRLTQKKFAELVGVSKATMERWETKEDKITGPVVLLLKILEDHPEY | -1.55
HMNNQKATAVKVASGIVNLRSGPATSYETLDTVATGETLSVLAEKDGWFQVSRAGRTGWVAGWVVDVIRE | -0.499
HMNNSSIGERLKYQRKIKGYSQEELADRTNVTVRTIQRIEKEEVSPHLNTIKLLAIALDIEVDELVAL | -2.68

Sequence | soluble fraction (log2)
HMNNSVAYSTFLNDIRTNTLKDVDMTSNSETINVTKKDGTKYQTVMPMYDRDLLADLSKTDATVTGQP | 0.562
HMNNTIKFSVDIKNSGKRLDIFLSENVTQYTRSYLKRLIENSHVKLNNKILNSPSTKVKFQDQIIINNIE | -2.88
HMNNTIKFSVDTTNSGKRLDIFLAENIKQFTRSYLKKIISNNQVKLNNLVANSPSIKVKHSDLILINILE | -2.75
HMNNTVLSSVKSINMFLDANGGDAGQAFRIYNNTNPDSNPTESTYIFKVAEDGNTFVKGYLNLNGTTL | -0.267
HMNNVRIEHIDTIGTVRLHKKRGVKRVSLRIHQSGEIRVTQPLYLPFSAGVLFAKSHTEWIMKQKQK | 0.0763
HMNNWRRSLEREVTASLARGDRDIFDGLNRSFEAALITKALEHTGGRRIEAATLLGIGRNTLTRKIQDLGL | -2.11
HMNNYEGIVKSVSNSNVYIQVAGRTIGYTISPHTIIMVNGKNVPASELMPGQHVSYTNKGSKLSYININS | -1.17
HMNNYFPAYKGSATSIAPALKQMGVNNSYAYRSKIAAVNNITGYRGTPAQNTQMLNLLKQGRLIK | 0.349
HMNNYNDSVQKIINYIADNLNENLSVRKLADKMPMSVSHFNRVFQKYTGDSPYAYVMAMRIKKAKYL | -0.157
HMNPAIYIRKNILNLTQEKLSEYLDVTQPTIHRWEESGVIPAKHQRQIREFASEKGIYWNDSWFFSIPDE | -1.53
HMNPDMIAGVLKVPAAAGRLRSALFELGVVDDESYDDDGASRLTVTASQSDLERIVAQAGLVFEDVLVERR | -0.142
HMNPEAFIQTLKQILSTYEKNDPIYLQEIKADLVKKFRIEIPINALETYLKENGYSNIYLKR | -0.168
HMNPEDLSGVRKAAILLLTMDDEVTKDVMKGLDEEEIEAIGKEITNLKLIPDHVVHRVQEEFMTKVSK | 0.107
HMNPESRRSELIDAATKLFFSRGYTATSIRDILDAVDDRTASPSVFYYYFESKEAIYQAVLQRYTD | -2
HMNPETPAQQAVRKRLIVSVQFYRRLKDTPLKAVWQVAARDTLVNGYNLFLKRNIHAFNDRTLSTPSALS | -0.0445
HMNPFPDNTAEVLSQFKNIIVPELNTGQLSKLLRARYLVDTVGINKVEGLPFTAQELEEKIESLINSF | -0.428
HMNPGQIIRKLRQDQGMTLAVLAKYANLDPGNLSRIERDDLNISFNLLEKLSLILNVSPIVFFH | -0.119
HMNPLSELSFEERRELFLEAAVRLFEEKGYKNTSVEDIAGELGFTKKVFYYYWKNKREIVQEIHDRGMA | -0.594
HMNPNFIEVSHGRLRVNVPLSAYEGTTYHIKPEEAEKLKRTLASRYPWLTPNALKVFIEEAEQAMRERIQ | -0.403
HMNPSKEFNMSDLLKAKMVGDVSAAKRREKAGALLHIGYGNAKTFLKKLNHFSISREEWDKVIAAMEEF | -1.26
HMNPSVSSDERILLQKALGILSAEQKQIVMLHAVAGIKHREIAKLLDMPIATVLSKYSRAVNKLRHAMEA | -0.456
HMNPTTDFFKLEGIDATRILVFDQVGRQVAQFSQPAQQMDIQALPAGVYALRIENADGQVYSARIVK | -0.231
HMNPVVATTIILDGEIIKDNLAEANLSEEWLLEELKRQNFNDVKEVFYAEWLDGKQLFAYPYTK | -0.537
HMNQDIIEIGNNIQKIRKKNGISQSVLAEKIDVAGNSIYRMEGATTVMGVDKLINIADALNTSPMDILPAR | 0.0791
HMNQDMINFDKLSVRLKNVLIENNLKTVDSLLNYPAEEFEYLTNLGEKTLQELLTYRNELAASNNIQ | -0.51
